The text below walks through data of patent publication US20170247716A1 (PIONEER HI BRED INTERNATIONAL, published 2017).

B1: AtARL-NubG (other, UniProt Q8RXL7 1-135, looked up)
chain: MIREFSSLQNDIINIQEHYSLNNNMDVRGDHNRKNTSFRGSAPAPIMGKQELFRTLSSQNSPRRLISASYFSLESMVVLVGLTASLLILPLILPPLPPPPFMLLLIPIGIMVLLMVLAFMPSSNSKHVSSSSTFM
notes: Prey of the split-ubiquitin yeast two-hybrid system; also called Arabidopsis ARGOS-LIKE (ARL); not shown: N-terminal half of a mutated ubiquitin (NubG)
B2: ZmRTL4-Cub-PLV (other)
chain: MENDRRQLGQIDPRRARFPCCIVWTPIPFITWLVPFIGHIGICREDGVILDFSGPHFVSVDNFAFGAVARYIQVNCDECYKLIEPEGDATWDGALKKGTQEFQNRNYNLFTCNCHSFVANNLNRLFYSGHDEWNVVSLAAVMFLRGRWVSTASVVKTLLPFAVVLSIGTFLGGTTFLTGLLAFAAAMTVWFLVGTYCIKGLIEL
notes: domain: C-terminal half of ubiquitin (Cub); Bait of the split-ubiquitin yeast two-hybrid system; the legend prints ZmRTE4-Cub-PLV; also called ZmRTE4-Cub-PLV; ZmRTL4 bait construct; not shown: C-terminal half of ubiquitin (Cub); synthetic transcription factor PLV (protease A-LexA-VP16)

The target of one experiment is T1, AtRTE1-Cub-PLV (Arabidopsis, UniProt F4ITL6 1-250).
T1 construct: Bait of the mating-based split-ubiquitin yeast two-hybrid system; also called AtRTE1 bait construct; not shown: C-terminal half of ubiquitin (Cub); synthetic transcription factor PLV (protease A-LexA-VP16)
T1 sequence (looked up): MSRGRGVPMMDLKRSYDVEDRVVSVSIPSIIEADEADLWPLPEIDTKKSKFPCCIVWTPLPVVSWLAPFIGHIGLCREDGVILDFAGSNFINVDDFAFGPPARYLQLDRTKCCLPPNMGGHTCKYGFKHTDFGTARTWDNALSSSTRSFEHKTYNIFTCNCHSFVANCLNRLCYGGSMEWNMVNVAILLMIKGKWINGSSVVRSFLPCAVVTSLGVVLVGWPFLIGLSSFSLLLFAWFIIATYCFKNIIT
Description: yeast split-ubiquitin two-hybrid. The method, then: (§1) (B) β-Galactosidase assay for yeast diploid cells expressing AtRTE1-Cub-PLV and various ARGOS-NubG fusion proteins. Yeast cells were cultured in SC-Leu-Trp liquid medium. The β-Galactosidase (β-Gal) activity assay uses […] as a substrate. (C) Growth of yeast diploid cells from the mating of haploid strains containing ARGOS-NubG constructs and negative control […] construct. The plates were incubated at 28° C. for 4 days. (D) Liquid β-Galactosidase assay for yeast diploid cells expressing negative control AtCHX20-Cub-PLV and various ARGOS-NubG fusion proteins.
(§2) (A) Growth of yeast diploid cells on SC dropout media to show protein-protein interaction of ZmRTL4 with Arabidopsis and maize ARGOS. The SC-Leu-Trp and SC-Leu-Trp-His-Ade media contain 134 and 375 μM Met, respectively. The plates were incubated at 28° C. for 4 days. (B) β-Galactosidase assay for yeast diploid cells expressing ZmRTE4-Cub-PLV and various ARGOS-NubG fusion proteins. (C) Growth of yeast diploid cells on SC dropout media to show protein-protein interaction of ZmRTL2 with Arabidopsis and maize ARGOS. The SC-Leu-Trp and SC-Leu-Trp-His-Ade media contain 134 μM Met. The plates were incubated at 28° C. for 5 days. (D) β-Galactosidase assay for yeast diploid cells expressing ZmRTE2-Cub-PLV and various ARGOS-NubG fusion proteins. […]

The target in the experiment “AtARL-NubG” is B1. As to the kind of experiment: yeast split-ubiquitin two-hybrid. As for the experimental part:
as §1, §2

With B1, in the experiment with AtRTE1-Cub-PLV, the binding result was “binds”.

Take B2: the binding result with AtARL-NubG is recorded as “binds”.
